# Paper PMC4228395, “Detrimental effect of the 6 His C-terminal tag on YedY enzymatic activity and influence of the TAT signal sequence on YedY synthesis” (BMC Biochemistry, 2013)
# Assays:
# Test in all cases: purified protein
# Type in all cases: biochemical, Cereibacter sphaeroides
# Conditions in all cases: 0.2 mM dithionite-reduced benzyl viologen as electron donor, 100 mM MES pH 6.0, anaerobic
# C[S+](C)[O-] [1] = tested on: T1, C[S+](C)[O-]
# T1 construct: mature periplasmic enzyme, TAT signal peptide cleaved; N-terminal 6His-TEV site (ENLYFQ) kept; plasmid pSM196 in R. sphaeroides dmsA- strain; monomer; molybdenum cofactor
# C[S+](C)[O-] [2] = tested on: T2, C[S+](C)[O-]
# T2 construct: mature enzyme expressed without TAT signal peptide; N-terminal 6His-TEV site kept; plasmid pSM181 in R. sphaeroides dmsA- strain
# C[S+](C)[O-] [3] = tested on: T3, C[S+](C)[O-]
# T3 construct: mature enzyme, TAT signal peptide cleaved; N-terminal 6His tag cut off by TEV protease, GHM left at N-terminus; pSM196 in R. sphaeroides dmsA- strain; monomer
substance,measurement,setting,value
"YedY, N-ter tag (+SS) (Cereibacter sphaeroides f. sp. denitrificans)",Km,C[S+](C)[O-] [1],71 mM
"YedY, N-ter tag (-SS) (Cereibacter sphaeroides f. sp. denitrificans)",Km,C[S+](C)[O-] [2],43 ± 6 mM
"YedY, No tag (+SS) (Cereibacter sphaeroides f. sp. denitrificans)",Km,C[S+](C)[O-] [3],61 ± 7 mM
